# Assay results as given in patent US20200369765A1 (INNATE PHARMA, published 2020).
# Residue numbers refer to the chain shown, from its start.
# T1: Human Siglec-5 (human, UniProt O15389 17-551)
# T1 construct: Expressed on transfected CHO cells; also called HuSiglec-5
# T1 sequence: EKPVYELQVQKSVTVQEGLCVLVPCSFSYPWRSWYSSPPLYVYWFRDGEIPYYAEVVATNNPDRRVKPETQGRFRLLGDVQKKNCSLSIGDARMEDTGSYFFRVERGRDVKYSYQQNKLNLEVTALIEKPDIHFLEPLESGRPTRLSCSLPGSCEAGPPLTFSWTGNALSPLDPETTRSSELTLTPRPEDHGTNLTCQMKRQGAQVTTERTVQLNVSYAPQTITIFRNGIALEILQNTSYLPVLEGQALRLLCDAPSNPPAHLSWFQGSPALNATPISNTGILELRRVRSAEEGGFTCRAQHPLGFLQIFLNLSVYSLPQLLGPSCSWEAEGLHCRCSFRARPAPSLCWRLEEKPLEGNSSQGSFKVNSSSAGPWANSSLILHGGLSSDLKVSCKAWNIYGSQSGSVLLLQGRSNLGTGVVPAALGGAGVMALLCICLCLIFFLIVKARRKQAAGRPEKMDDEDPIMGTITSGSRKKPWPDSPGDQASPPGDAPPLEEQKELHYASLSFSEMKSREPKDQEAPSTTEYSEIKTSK
# T2: Human Siglec-10 (human, UniProt Q96LC7 17-697)
# T2 construct: Expressed on transfected CHO cells; also called HuSiglec-10
# T2 sequence: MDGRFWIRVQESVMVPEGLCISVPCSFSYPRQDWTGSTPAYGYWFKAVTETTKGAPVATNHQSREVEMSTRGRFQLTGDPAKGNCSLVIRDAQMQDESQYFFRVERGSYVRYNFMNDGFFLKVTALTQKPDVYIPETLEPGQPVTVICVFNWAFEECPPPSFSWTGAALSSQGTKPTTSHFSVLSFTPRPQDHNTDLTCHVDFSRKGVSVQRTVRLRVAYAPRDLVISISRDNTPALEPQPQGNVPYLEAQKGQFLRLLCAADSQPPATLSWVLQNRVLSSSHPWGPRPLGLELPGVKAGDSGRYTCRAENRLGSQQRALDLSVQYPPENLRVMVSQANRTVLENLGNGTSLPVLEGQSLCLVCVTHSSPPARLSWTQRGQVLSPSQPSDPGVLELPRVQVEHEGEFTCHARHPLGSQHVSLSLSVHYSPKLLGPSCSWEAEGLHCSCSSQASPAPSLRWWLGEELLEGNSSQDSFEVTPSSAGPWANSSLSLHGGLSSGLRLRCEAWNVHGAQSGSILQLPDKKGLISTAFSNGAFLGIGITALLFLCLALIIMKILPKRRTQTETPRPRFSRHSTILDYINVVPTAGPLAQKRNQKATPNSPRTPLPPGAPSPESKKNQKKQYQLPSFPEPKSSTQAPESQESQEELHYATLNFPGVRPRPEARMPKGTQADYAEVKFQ
# T3: Human Siglec-11 (human, UniProt Q96RL6 29-698)
# T3 construct: Expressed on transfected CHO cells; also called HuSiglec-11
# T3 sequence: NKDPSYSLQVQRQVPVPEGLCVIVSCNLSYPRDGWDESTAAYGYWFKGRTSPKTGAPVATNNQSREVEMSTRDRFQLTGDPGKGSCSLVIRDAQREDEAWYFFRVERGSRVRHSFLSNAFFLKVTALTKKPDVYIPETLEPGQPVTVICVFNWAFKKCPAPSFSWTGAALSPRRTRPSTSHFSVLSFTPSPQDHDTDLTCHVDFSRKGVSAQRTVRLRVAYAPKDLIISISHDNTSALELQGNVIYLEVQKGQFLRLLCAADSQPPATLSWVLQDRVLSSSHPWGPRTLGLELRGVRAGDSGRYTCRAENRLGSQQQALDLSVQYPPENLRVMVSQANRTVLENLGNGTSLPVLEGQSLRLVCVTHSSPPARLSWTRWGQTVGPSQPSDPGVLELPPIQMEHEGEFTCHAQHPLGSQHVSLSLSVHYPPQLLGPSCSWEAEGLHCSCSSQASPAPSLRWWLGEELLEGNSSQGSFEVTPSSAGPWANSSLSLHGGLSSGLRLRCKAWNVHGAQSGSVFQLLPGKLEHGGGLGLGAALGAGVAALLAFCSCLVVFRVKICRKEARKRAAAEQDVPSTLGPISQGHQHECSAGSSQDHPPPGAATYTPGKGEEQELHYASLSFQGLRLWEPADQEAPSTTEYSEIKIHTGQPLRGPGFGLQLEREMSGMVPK
# B1: mAbF (antibody, human IgG1, V domains shown)
# VH: QVQLQQSGPEVVRPGVSVKISCKGSGYTFTDYSMHWVKQSHAKSLEWIGVISTYNGNTNYNQKFKGKATMTVDKSSSTAYMELARLTSEDSAIYYCARRGYYGSSSWFGYWGQGTLVTVSA
# VL: DIVMTQSQKFMSTSVGDRVSVTCKASQNVGTDVAWYQQKPGQSPEALIYSASYRYSGVPDRFTGSGSGADFTLTISNVQSEDLAEYFCQQYNSFPYTFGGGTKLEIK
# B2: mAbD (antibody, human IgG1, V domains shown)
# VH: QIQLVQSGPELKKPGETVKISCKASGYTFTDYSMHWVKQAPGKGLKWMGWIITETGEPTYADDFRGRFAFSLETSANTAYLQINNLKNEDTATYFCARDFDGYWGQGTTLTVSS
# VL: DILMTQSPASLSASVGETVTITCRASENIYSYLAWYQQKRGKSPQFLVYNAKTLTEGVPSRFRGSGSGTQFSLKINSLQPEDFGTYYCQHHYGFPWTFGGGTKLEIK
# B3: mAb1 (antibody, human IgG1, V domains shown)
# VH: DVQLQESGPGLVKPSQSLSLTCTVTGYSITGGFAWNWIRQFPGNTLEWMGYIGYGGSTSYNPSLNSRISITRDTSKNHFFLQFNSVTTDDSATYYCARGDYLFAYWGQGTLVTVSA
# VL: DIVMTQSHKFMSTSVGDRVSITCKASQDVNTAVAWYQQKPGQSPKLLIYSASYRYTGVPDRFTGSGSGTDFTFTISSVQAEDLAVYYCQQHYSTPRTFGGGTKLEIK
# B4: mAb3 (antibody, human IgG1, V domains shown)
# VH: B3 VH with D1E, Q5L, S7T, D89E
# VL: DILMTQSPASLSASVGETVSITCRASGNIHNYLAWYLQRQGKSPQLLVYNAKTLADGVPSRFSGTGSGTQFSLKINSLQPEDFGSYYCQHFWSTPRTFGGGTKLEIK
# B5: mAb2 (antibody, human IgG1, V domains shown)
# VH: B3 VH with D1E, D89E
# VL: B3 VL
# Molecular target: T4, Human Siglec-3 (human, UniProt P20138 18-364)
# T4 construct: Expressed on transfected CHO cells; also called HuSiglec-3; CD33
# Assay: flow cytometry, CHO transfectants
# T4 sequence (P20138 18-364 R69G): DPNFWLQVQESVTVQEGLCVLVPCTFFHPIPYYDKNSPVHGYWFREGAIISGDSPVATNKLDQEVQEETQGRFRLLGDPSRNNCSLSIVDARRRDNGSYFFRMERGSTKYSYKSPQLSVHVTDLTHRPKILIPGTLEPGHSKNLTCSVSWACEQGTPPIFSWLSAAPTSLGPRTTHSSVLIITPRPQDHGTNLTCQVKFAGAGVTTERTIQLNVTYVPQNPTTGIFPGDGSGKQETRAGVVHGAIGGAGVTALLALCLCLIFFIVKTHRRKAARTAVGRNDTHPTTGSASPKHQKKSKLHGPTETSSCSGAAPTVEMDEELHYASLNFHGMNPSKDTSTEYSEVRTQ
row,binding result,Binder
1,no binding,B1
2,no binding,B2
3,no binding,B3
4,no binding,B4
5,no binding,B5

# Molecular target: T1, Human Siglec-5
# Assay: flow cytometry, CHO transfectants
row,binding result,Binder
1,no binding,B1
2,no binding,B2
3,no binding,B3
4,no binding,B4
5,no binding,B5

# Molecular target: T5, Human Siglec-6 (human, UniProt O43699 27-453)
# T5 construct: Expressed on transfected CHO cells; also called HuSiglec-6
# Assay: flow cytometry, CHO transfectants
# T5 sequence (O43699 other isoform, or with tags, fused parts or gaps): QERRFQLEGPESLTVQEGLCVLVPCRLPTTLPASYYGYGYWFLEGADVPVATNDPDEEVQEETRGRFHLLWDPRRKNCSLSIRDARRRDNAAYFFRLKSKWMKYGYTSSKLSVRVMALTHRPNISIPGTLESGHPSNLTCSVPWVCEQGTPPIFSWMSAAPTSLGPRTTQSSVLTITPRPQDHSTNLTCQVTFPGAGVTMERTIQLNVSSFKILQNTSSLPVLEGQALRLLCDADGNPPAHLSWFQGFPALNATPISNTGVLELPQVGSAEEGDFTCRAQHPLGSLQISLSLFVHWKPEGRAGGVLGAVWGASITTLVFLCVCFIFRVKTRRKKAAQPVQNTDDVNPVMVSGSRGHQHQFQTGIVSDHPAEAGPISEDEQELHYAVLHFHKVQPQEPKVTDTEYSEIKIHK
row,binding result,Binder
1,no binding,B1
2,no binding,B2
3,no binding,B3
4,no binding,B4
5,no binding,B5

# Molecular target: T6, Human Siglec-8 (human, UniProt Q9NYZ4 17-499)
# T6 construct: Expressed on transfected CHO cells; also called HuSiglec-8
# Assay: flow cytometry, CHO transfectants
# T6 sequence (Q9NYZ4 17-499): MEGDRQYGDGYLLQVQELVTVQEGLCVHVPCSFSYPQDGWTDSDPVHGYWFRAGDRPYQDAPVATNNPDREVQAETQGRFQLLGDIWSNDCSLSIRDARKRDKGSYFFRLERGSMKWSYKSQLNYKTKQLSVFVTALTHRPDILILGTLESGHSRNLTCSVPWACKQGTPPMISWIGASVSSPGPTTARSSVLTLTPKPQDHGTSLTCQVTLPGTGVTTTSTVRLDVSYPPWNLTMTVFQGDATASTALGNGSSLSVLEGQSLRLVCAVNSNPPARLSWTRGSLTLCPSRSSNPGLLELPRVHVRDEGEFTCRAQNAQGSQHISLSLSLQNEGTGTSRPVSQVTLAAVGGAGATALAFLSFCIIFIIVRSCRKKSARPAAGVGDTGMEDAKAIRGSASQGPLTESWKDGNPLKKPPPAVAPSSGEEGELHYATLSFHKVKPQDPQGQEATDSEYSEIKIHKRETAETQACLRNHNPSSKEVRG
row,binding result,Binder
1,no binding,B1
2,no binding,B2
3,no binding,B3
4,no binding,B4
5,no binding,B5

# Molecular target: T2, Human Siglec-10
# Assay: flow cytometry, CHO transfectants
row,binding result,Binder
1,no binding,B1
2,no binding,B2
3,no binding,B3
4,no binding,B4
5,no binding,B5

# Molecular target: T3, Human Siglec-11
# Assay: flow cytometry, CHO transfectants
row,binding result,Binder
1,no binding,B1
2,no binding,B2
3,no binding,B3
4,no binding,B4
5,no binding,B5

# Molecular target: T7, Human Siglec-12 (human, UniProt Q96PQ1 19-595)
# T7 construct: Expressed on transfected CHO cells; also called HuSiglec-12
# Assay: flow cytometry, CHO transfectants
# T7 sequence (Q96PQ1 19-595): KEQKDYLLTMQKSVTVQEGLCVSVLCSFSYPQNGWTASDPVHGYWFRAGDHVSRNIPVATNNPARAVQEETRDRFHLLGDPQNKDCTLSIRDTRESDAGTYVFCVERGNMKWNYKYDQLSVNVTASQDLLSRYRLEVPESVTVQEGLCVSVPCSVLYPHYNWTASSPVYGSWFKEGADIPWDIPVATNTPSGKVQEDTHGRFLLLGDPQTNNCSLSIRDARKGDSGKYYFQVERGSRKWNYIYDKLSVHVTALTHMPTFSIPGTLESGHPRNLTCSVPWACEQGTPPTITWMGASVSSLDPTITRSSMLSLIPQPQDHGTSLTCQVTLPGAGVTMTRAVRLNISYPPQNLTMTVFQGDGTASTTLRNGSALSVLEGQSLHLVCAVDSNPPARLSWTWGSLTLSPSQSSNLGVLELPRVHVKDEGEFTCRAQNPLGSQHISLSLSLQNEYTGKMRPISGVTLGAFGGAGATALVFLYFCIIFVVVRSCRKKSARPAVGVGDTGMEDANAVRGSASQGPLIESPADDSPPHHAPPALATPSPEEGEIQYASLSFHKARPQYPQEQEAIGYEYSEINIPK
row,binding result,Binder
1,no binding,B1
2,no binding,B2
3,binds,B3
4,binds,B4
5,binds,B5

# Molecular target: T8, Human Siglec-9 mutant M3 (human, UniProt Q9Y336 18-463)
# T8 construct: Expressed on HEK293T cells; also called Mutant 3
# Assay: flow cytometry, HEK293T transfectants
# T8 sequence (Q9Y336 other isoform, or with tags, fused parts or gaps mutant): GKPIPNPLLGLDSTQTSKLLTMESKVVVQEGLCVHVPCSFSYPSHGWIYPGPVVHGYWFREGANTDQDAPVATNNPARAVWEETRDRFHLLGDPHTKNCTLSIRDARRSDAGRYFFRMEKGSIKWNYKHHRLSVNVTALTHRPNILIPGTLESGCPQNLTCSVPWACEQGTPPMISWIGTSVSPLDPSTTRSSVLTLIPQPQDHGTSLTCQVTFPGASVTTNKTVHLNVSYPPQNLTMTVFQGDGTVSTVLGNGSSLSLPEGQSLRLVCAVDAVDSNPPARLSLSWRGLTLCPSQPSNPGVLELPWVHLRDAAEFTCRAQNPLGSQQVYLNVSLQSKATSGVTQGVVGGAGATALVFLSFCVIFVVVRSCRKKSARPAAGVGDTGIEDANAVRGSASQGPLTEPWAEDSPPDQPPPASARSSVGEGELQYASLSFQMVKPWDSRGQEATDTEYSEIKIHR
row,binding result,Binder
1,binds,B1
2,binds,B2
3,binds,B3
4,binds,B4
5,binds,B5

# Molecular target: T9, Human Siglec-9 mutant M5 (human, UniProt Q9Y336 18-463)
# T9 construct: Expressed on HEK293T cells; also called Mutant 5
# Assay: flow cytometry, HEK293T transfectants
row,binding result,Binder
1,binds,B1
2,binds,B2
3,binds,B3
4,binds,B4
5,binds,B5

# Molecular target: T10, Human Siglec-9 mutant M7 (human, UniProt Q9Y336 18-463)
# T10 construct: Expressed on HEK293T cells; also called Mutant 7
# Assay: flow cytometry, HEK293T transfectants
# T10 sequence (Q9Y336 other isoform, or with tags, fused parts or gaps mutant): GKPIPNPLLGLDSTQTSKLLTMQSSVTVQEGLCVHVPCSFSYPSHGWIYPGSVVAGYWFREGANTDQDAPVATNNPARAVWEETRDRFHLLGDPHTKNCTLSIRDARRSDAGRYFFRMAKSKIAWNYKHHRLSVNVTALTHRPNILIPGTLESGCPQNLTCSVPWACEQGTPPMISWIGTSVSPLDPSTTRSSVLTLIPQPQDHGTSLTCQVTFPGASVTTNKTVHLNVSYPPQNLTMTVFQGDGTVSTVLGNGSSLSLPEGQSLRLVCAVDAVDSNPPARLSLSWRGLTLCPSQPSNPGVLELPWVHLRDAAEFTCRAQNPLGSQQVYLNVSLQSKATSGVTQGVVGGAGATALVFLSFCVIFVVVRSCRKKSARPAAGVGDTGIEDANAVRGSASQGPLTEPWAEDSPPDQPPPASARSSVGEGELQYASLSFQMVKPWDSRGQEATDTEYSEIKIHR
row,binding result,Binder
1,binds,B1
2,binds,B3
3,binds,B4
4,binds,B5

# Molecular target: T11, Human Siglec-9 mutant M8 (human, UniProt Q9Y336 18-463)
# T11 construct: Expressed on HEK293T cells; also called Mutant 8
# Assay: flow cytometry, HEK293T transfectants
# T11 sequence (Q9Y336 other isoform, or with tags, fused parts or gaps mutant): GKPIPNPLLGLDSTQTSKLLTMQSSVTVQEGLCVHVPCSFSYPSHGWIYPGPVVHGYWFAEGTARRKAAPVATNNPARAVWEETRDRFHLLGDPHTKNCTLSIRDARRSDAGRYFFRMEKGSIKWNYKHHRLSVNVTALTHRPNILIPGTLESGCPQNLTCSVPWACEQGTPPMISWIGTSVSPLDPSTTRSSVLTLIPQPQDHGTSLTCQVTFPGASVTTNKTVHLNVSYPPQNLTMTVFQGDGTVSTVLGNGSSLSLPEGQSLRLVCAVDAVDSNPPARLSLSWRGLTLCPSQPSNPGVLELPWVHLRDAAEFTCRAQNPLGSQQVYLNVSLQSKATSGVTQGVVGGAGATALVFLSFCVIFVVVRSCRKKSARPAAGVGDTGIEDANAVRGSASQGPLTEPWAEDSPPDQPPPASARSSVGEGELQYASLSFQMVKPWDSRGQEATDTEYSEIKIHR
row,binding result,Binder
1,binds,B2
2,binds,B3
3,binds,B4
4,binds,B5

# Molecular target: T12, Human Siglec-9 mutant M14 (human, UniProt Q9Y336 18-463)
# T12 construct: Expressed on HEK293T cells; also called Mutant 14
# Assay: flow cytometry, HEK293T transfectants
# T12 sequence (Q9Y336 other isoform, or with tags, fused parts or gaps mutant): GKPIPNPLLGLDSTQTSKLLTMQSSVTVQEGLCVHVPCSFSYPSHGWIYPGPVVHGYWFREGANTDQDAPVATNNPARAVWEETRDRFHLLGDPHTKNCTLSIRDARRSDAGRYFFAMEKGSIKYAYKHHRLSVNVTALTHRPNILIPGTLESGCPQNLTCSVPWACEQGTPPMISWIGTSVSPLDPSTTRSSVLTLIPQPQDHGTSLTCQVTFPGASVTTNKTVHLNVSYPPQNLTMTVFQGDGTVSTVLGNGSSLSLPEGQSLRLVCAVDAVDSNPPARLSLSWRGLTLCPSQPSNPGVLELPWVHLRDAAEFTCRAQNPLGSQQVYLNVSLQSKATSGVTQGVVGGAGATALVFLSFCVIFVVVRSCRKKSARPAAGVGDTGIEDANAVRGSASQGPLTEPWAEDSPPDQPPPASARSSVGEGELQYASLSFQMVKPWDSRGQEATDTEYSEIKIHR
row,binding result,Binder
1,binds,B1
2,binds,B2
3,binds,B3
4,binds,B4
5,binds,B5

# Molecular target: T13, Human Siglec-9 mutant M15 (human, UniProt Q9Y336 18-463)
# T13 construct: Expressed on HEK293T cells; also called Mutant 15
# Assay: flow cytometry, HEK293T transfectants
# T13 sequence (Q9Y336 other isoform, or with tags, fused parts or gaps mutant): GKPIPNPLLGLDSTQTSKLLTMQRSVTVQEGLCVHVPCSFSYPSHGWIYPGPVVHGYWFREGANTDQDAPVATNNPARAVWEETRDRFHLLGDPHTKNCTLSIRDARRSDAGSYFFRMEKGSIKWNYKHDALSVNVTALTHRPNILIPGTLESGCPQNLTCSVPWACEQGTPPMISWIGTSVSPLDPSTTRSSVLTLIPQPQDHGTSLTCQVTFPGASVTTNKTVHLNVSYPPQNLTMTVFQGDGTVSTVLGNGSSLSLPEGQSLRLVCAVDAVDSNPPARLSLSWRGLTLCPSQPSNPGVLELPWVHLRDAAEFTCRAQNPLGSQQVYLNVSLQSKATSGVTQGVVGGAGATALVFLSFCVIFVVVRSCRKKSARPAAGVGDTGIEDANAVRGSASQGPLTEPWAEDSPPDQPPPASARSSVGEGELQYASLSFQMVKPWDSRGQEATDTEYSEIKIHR
row,binding result,Binder
1,binds,B1
2,binds,B2
3,binds,B3
4,binds,B4
5,binds,B5
